Measurements published in the RNAGym collection of RNA variant scans (doi:10.7554/elife.90254).

B1: LINE1-mini (parent)
chain: GGCAGAGCUCAACACAGCGUGGCAAAGUGGCUGUGGCUAGACUGCC

Variants of: B1
Assay: self-cleavage, relative activity (ratio to wild type); higher = more cleavage; in vitro, sequencing; the parent is a self-cleaving ribozyme

Variant	self-cleavage
G21U A41G	0.28
A16U U20G	0.03
G36C A41G	0.11
C8G G19A	0.15
G1A G22C	1.94
A4U A6C	0.06
U20A C31U	0.17
C8G U32A	0.04
A6U C10G	0.06
G36U G44C	0.08
C13G C37U	0.37
G17C G40C	0.05
A6C U20C	0.33
G2U G44U	0.06
G5U G44U	0.06
A12C U34C	0.03
G5C C23A	0.07
C10A C42U	0.03
C3G C46A	0.36
A41G C45U	0.49
G5A A14C	0.09
C15U U43G	0.44
G33A G44C	0.07
G19U G33U	0.13

Variant	self-cleavage
G17A U43G	0.05
U20C G35C	0.03
C37G A39U	0.08
G30U C42G	0.05
G2U C8G	0.04
G19A G33C	0.05
C13U G29A	0.28
A14G A24G	0.76
A25C G30A	0.44
G27U U34C	0.19
A11C C42A	0.02
G44U C46A	0.08
C13U C37A	0.27
A14C A24C	0.11
C8A U38G	0.07
G30C A39U	2.23
G7C G40C	0.05
C10U C15A	0.06
G36U C37G	0.05
G36U U43A	0.04
A11U A14G	0.03
A11C C23U	0.05
C42U G44U	0.1
C23G U32G	0.21

Variant	self-cleavage
A26U	1.27
A26G	0.87
C8G U34C	0.04
C3G A6G	0.08
G5C G7U	0.25
G2U C3G	0.26
G1U C13G	0.13
A4C A12C	0.03
C13U A14G	0.17
G33A G40C	0.09
G27C C46G	0.59
A6U G19A	0.64
C13A C23G	0.13
U28C C45A	1.7
G21C A26G	0.35
G7C U34C	0.06
G2A G35A	0.26
G27C G40C	0.07
A6U C13G	0.28
G21U U34C	0.27
U38A C45U	0.59
A16G U32G	0.11
A14C G17U	0.28
A11G U43C	0.02

Variant	self-cleavage
C8A G30A	0.42
G5A C10U	0.09
C15U C37A	0.11
C13G C18G	0.07
G1C G40A	0.03
C3A G21U	0.47
A26G A39G	0.05
G2A A24G	1.04
U9A G29C	0.05
C13U C18A	0.07
U20C U28A	0.93
G21A G40C	0.22
G27A C37G	0.02
G27A C37U	0.05
G2C C46G	0.16
A4C A25C	0.06
G27C A39C	0.11
A4C A24U	0.17
C8A U20C	0.15
A12G C23U	0.03
G5A A12G	0.08
C31G G44U	0.05
U28A A39G	0.05
A25U A39U	0.86

Variant	self-cleavage
C8U G30C	0.26
A6G G36C	0.09
U20A G22U	0.91
G33U G44U	0.07
A24C C42G	0.05
C10U	0.34
G1U A26C	0.32
A16C C18G	0.04
U9G C45G	0.21
A11G G22A	0.03
A11G G22U	0.05
G19C G33A	0.15
G7U G44C	0.13
C13U G30C	0.09
G40C C45A	0.09
G22U G35A	0.15
A14C C37U	0.02
A4C G7A	0.87
G7U C15U	0.1
A6C G44U	0.18
G33U C42U	0.09
C15A G36A	0.14
C15U G44U	0.09
G35A G36U	0.19

Variant	self-cleavage
A4G C42A	0.09
A11C C31A	0.02
G29U G30C	0.69
A6U A39G	0.04
U28C G44A	0.67
A41U C45A	0.19
A6U G17A	0.11
G19C U32C	0.14
A14U A39U	0.57
C23U G29U	0.85
C8A A14C	0.18
G19A A41C	0.08
A6U A12U	0.17
G2A G36U	0.19
A16C U20A	0.05
C3U G7C	0.17
G7U G33A	0.13
G30U U43A	0.11
G5A A41C	0.06
U32G G40A	0.05
A16G G17C	0.31
G21C C45G	0.07
G21C C45U	1.56
C15A G19C	0.14

Variant	self-cleavage
A6G C10A	0.03
A12G C15U	0.03
A6C U9G	0.11
G7C C13G	0.18
G7A C46A	0.23
U32C C37G	0.06
C42A G44C	0.12
G22C U34C	0.17
A6C G33A	0.06
G2A G29A	0.61
G29C C31U	0.93
C8G U20C	0.08
C45U C46U	1.03
C10G G22U	0.11
G19C A26U	0.37
G27U G40U	0.13
A26G U43A	0.07
A26G U43G	0.03
A11U C37G	0.02
C18G A26G	0.22
U20G G30C	0.3
C8U C13A	0.5
U9G G19U	0.1
G5A A16G	0.07

Variant	self-cleavage
A25U C37U	0.03
C3G G40A	0.39
U34A C42A	0.05
G19U A39U	0.58
U9C A26C	0.03
A4G U34A	0.07
A6G A11U	0.02
A4G A41U	0.3
A6U U38G	0.04
C3G G35U	0.28
G17C A41U	0.49
G2C C13A	0.08
C8U A16C	0.13
G21A U38G	0.03
G21A U38C	1.12
A4C G29C	0.24
A12C U20G	0.01
G7U A12C	0.02
A14G A39G	0.1
A4U G29U	0.23
A16G A24G	0.16
C15U G19C	1.39
U28G U34A	0.26
G1A C37G	0.04

Variant	self-cleavage
C13G U32C	0.07
G5U G27C	0.05
G19A A24C	0.61
A25U U43A	0.21
G7U G27U	0.08
C15G G44C	0.04
U28A G44A	0.23
A26G U32G	0.18
G22U U34C	0.44
C18A C46A	0.95
U9G	0.15
A14U U20A	0.42
A4U C15G	0.06
A4C U32G	0.1
G30C U38G	0.03
A39C U43A	0.04
C23A C42U	0.52
U9A U20A	0.16
G19A U43A	0.15
C31G	0.1
G17C G30A	0.94
G19C C23U	0.83
G29C C45G	0.19
G29U U32C	0.16

Variant	self-cleavage
A14G A41G	0.16
A26G A41G	0.2
C18A C45A	0.24
G7U U28G	0.07
G7A G27U	0.16
A6U C8U	0.29
A4U C8A	0.23
C13U C23G	0.06
G17A G33A	0.05
G19A C46A	0.81
C3U A24G	0.24
G17A G29C	0.68
A6G A24C	0.13
G19U G27U	0.58
C31G C45A	0.04
G36U A41U	0.1
A24U U32A	0.07
G22U A26U	1.59
G33C A41U	0.08
A24U A26U	1.34
A12U G21C	0.21
U34C G36C	0.08
G21C C31A	0.19
G19C U34C	1.22

Variant	self-cleavage
G5A A39C	0.24
C23G G40C	0.13
C3U A14G	0.34
U28C U32A	0.09
G29A G35A	0.23
A4U G33C	0.09
C3G A26C	0.37
G17U U32A	0.08
C37G C42U	0.02
U28C G29U	0.77
U28G A41G	0.27
C3G U9G	0.3
C3G U9A	0.27
G27U U43A	0.17
C10A U20A	0.05
A26G C31G	0.06
G1C U9C	0.03
A4U C37U	0.15
A16C G19C	0.4
C46U	1.03
C18A A26G	0.57
G5U C13A	0.09
G21C U43C	0.06
G33U G36A	0.08

Variant	self-cleavage
C37A G44C	0.07
C18U G35C	0.03
C15A A39U	0.06
G21C A25U	1.14
U32G A39G	0.8
C15U U20A	0.92
A16U G21U	0.19
C10A A12C	0.04
U32A G35C	0.08
C15U C18U	0.47
U32G G36U	0.1
C10U A39U	0.37
A4G C10A	0.06
A14U C42A	0.21
C8G G17A	0.08
A24G G36A	0.17
G29A C45U	1.67
A4U U28G	0.17
G5C A39C	0.07
A12U G29U	0.37
C3U U43C	0.09
G19U U32C	0.4
G29U C46G	0.93
G29U C46U	1.51

Variant	self-cleavage
C23A A41C	0.05
G17U A25C	0.12
G2C U38C	0.04
G7A A26G	0.24
A6C A25U	0.52
C13U U34A	0.09
C15A U38A	0.05
G35C U43G	0.09
C13A G30C	0.14
C8G C23G	0.08
A14C U38G	0.02
A24C U38A	0.3
G2C G19C	0.16
G5C C45U	0.06
C3A U38C	0.26
G5U A12G	0.04
U20A G29A	0.51
C23A	1.01
G30C G33C	0.03
G1A C42U	0.16
G5C C46U	0.06
A24C A26G	0.33
C8G	0.13
G7U G36U	0.05

Variant	self-cleavage
C23G G33U	0.16
G17U G30C	0.59
C3G U32C	0.14
G22C A24U	0.52
G1C C10U	0.04
G2U U28C	0.06
C15U A41U	0.33
A41C G44C	0.08
G33C G40C	0.07
A14C A25U	0.09
G2U C46A	0.09
G27A G44U	0.3
A6C C46G	0.46
U20A G21U	0.69
C23G U43C	0.24
G21A G44C	0.52
C10G A25C	0.1
A12G G22U	0.02
C10A C23A	0.06
A4U G44U	0.25
C13G U20G	0.13
C3U C42A	0.09
